Here are results for four substances from IntAct's records for PubMed 28258151.

This assay has as its target cfah_human CFH (UniProt P08603).

Chain of cfah_human CFH (P08603 whole entry): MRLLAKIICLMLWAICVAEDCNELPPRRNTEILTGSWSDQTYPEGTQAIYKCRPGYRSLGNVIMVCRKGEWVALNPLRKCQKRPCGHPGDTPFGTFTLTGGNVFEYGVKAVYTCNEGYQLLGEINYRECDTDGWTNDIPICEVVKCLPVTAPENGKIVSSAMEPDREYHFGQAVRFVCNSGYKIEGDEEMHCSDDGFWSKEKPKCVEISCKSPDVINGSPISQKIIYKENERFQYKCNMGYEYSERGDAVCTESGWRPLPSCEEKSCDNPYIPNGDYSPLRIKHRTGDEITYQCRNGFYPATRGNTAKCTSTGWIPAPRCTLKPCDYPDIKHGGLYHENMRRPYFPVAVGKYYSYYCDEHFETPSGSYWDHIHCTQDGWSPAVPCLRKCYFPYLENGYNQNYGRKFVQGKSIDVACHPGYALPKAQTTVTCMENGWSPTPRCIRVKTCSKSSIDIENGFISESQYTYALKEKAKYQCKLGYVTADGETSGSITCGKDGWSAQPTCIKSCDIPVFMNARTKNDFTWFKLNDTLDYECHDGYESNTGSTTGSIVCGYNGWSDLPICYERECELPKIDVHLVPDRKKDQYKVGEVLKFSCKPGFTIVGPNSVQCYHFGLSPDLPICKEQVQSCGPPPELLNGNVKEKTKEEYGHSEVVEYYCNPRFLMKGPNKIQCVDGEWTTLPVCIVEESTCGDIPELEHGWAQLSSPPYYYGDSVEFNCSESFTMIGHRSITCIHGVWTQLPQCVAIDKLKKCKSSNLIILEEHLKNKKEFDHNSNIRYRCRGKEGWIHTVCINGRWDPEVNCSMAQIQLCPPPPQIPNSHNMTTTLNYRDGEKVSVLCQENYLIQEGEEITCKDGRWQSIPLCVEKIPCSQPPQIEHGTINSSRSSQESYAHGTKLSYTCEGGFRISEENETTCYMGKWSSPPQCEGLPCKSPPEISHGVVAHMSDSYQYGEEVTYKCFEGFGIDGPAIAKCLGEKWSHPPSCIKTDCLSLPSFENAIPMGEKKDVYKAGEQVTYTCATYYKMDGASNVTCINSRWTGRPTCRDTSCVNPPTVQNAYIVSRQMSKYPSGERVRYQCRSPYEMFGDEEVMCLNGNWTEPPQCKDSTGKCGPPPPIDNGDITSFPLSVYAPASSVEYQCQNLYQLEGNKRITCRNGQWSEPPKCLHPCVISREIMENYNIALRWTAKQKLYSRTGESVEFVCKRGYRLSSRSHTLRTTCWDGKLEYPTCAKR

Regarding “Serine-aspartate repeat-containing protein E (Staphylococcus aureus (strain Mu50 / ATCC 700699)), Q932F7 D334A”, the “effect of a mutation on the interaction” value is given as “decreasing interaction”.

“Serine-aspartate repeat-containing protein E (Staphylococcus aureus (strain Mu50 / ATCC 700699)), Q932F7 Q419A”: the “effect of a mutation on the interaction” value is recorded as “decreasing interaction”.

With “Serine-aspartate repeat-containing protein E (Staphylococcus aureus (strain Mu50 / ATCC 700699)), Q932F7 D588A”, the “effect of a mutation on the interaction” value is reported as “disrupting interaction”.

With “Serine-aspartate repeat-containing protein E (Staphylococcus aureus (strain Mu50 / ATCC 700699)), Q932F7 L335A”, the “effect of a mutation on the interaction” value is given as “decreasing interaction”.
